In the DeepSol protein solubility set:

Test: soluble on expression in E. coli; label from the status in PepcDB or PDB records

Soluble on expression in E. coli, soluble:
STDVHRRFLQLLMTHGVLEEWDVKRLQTHCYKVHDRSATVDKLEDFINNINSVLESLYIEIKRGVTEDDGRPIYALVNLATTSISKMATDFAENELDLFRKALELIIDSETGFASSTNILNLVDQLKGKKMRKKEAEQVLQKFVQNKWLIEKEGEFTLHGRAILEMEQYIRETYPDAVKICNICHSLLIQGQSCETCGIRMHLPCVAKYFQSNAEPRCPHCNDYWPHEIPKVFDPEKERESGVLKSNKKSLRSRQH
LTFSLNFATSSKDSYGTGWLIDWKGDENKPSNTDPFLIYLATNLHVVDALRNPQDYEPYNKDSNGQDYGNRDITHFFALGKYTDPGLLGVETKE
SSEAKKGHVLFFPYPLQGHINPMIQLAKRLSKKGITSTLIIASKDHREPYTSDDYSITVHTIHDGFFPHEHPHAKFVDLDRFHNSTSRSLTDFISSAKLSDNPPKALIYDPFMPFALDIAKDLDLYVVAYFTQPWLASLVYYHINEGTYDVPVDRHENPTLASFPGFPLLSQDDLPSFACEKGSYPLLHEFVVRQFSNLLQADCILCNTFDQLEPKVVKWMNDQWPVKNIGPVVPSKFLDNRLPEDKDYELENSKTEPDESVLKWLGNRPAKSVVYVAFGTLVALSEKQMKEIAMAISQTGYHFLWSVRESERSKLPSGFIEEAEEKDSGLVAKWVPQLEVLAHESIGCFVSHCGWNSTLEALCLGVPMVGVPQWTDQPTNAKFIEDVWKIGVRVRTDGEGLSSKEEIARCIVEVMEGERGKEIRKNVEKLKVLAREAISEGGSSDKKIDEFVALLT
MKERESVQDQSDPSETDSEELLQLDGKSISEWVSEIDAISKEVEAELVSRDIGCHLVQVLEAVNTVLFDLRGFKRTSITLDPENSYLHSVLNCRCSTAFLISVIYIEVCKRLNVPIVGSPVGEDFLIWPKTEYPEELFKATSGQSLFSIVNGRCVDDPGSMASDLTAKSLQDLDMATNRDIIGIALANLIRLHWRRASKSSHGLMLTSPLSQLNNISSSNFPLLRPQDLRLAIAAAERLLILQPHNWALRRDLGMMLYYDRQYGEAVQELSICMAFAPPEEEAVLEPFVERLHLLRLISSLKPLGSDRLTVP
MAMSFIKPIYQDINSILIGQKVKRPKSGTLSGHAAGEPFEKLVYKFLKENLSDLTFKQYEYLNDLFMKNPAIIGHEARYKLFNSPTLLFLLSRGKAATENWSIENLFEEKQNDTADILLVKDQFYELLDVKTRNISKSAQAPAIISAYKLAQTCAKMIDNKEFDLFDINYLEVDWELNGEDLVCVSTSFAELFKSEPSELYINWAAAMQIQFHVRDLDQGFNGTREEWAKSYLKHFVTQAEQRAISMIDKFVKPFKKYILRSRELVDPNSVQARLQDVDGTIDTRSKLAAAQLYTRASQPELAPEDPEDLEHHHHHH
MKGMSKMPQFNLRWPGGGPQFNLRWPREVLDLVRKVAEENGRSVNSEIYQRVMESFKKEGRIGGTGGSGGGREVLDLVRKVAEENGRSVNSEIYQRVMESFKKEGRIGAHHHHHHKNQHE
MLGLKTSIIGRRVIYFQEITSTNEFAKTSYLEEGTVIVADKQTMGHGALNRKWESPEGGLWLSIVLSPKVPQKDLPKIVFLGAVGVVETLKEFSIDGRIKWPNDVLVNYKAIAGVLVEGKGDKIVLGIGLNVNNKVPNGATSMKLELGSEVPLLSVFRSLITNLDRLYLNFLKNPMDILNLVRDNMILGVRVKILGDGSFEGIAEDIDDFGRLIIRLDSGEVKKVIYGDVSLRFL
GSHMASREQTMENILKAAKKKFGERGYEGTSIQEIAKEAKVNVAMASYYFNGKENLYYEVFKKYGLANELPNFLEKNQFNPINALREYLTVFTTHIKENPEIGTLAYEEIIKESARLEKIKPYFIGSFEQLKEILQEGEKQGVFHFFSINHTIHWITSIVLFPKFKKFIDGLVPRGSGGLVPRGSGDLVSRIISALTDKPNI
MAAAALRSGWCRCPRRCLGSGIQFLSSHNLPHGSTYQMRRPGGELPLSKSYSSGNRKGFLSGLLDNVKQELAKNKEMKESIKKFRDEARRLEESDVLQEARRKYKTIESETVRTSEVLRKKLGELTGTVKESLHEVSKSDLGRKIKEGVEEAAKTAKQSAESVSKGGEKLGRTAAFRALSQGVESVKKEIDDSVLGQTGPYRRPQRLRKRTEFAGDKFKEEKVFEPNEEALGVVLHKDSKWYQQWKDFKENNVVFNRFFEMKMKYDESDNAFIRASRALTDKVTDLLGGLFSKTEMSEVLTEILRVDPAFDKDRFLKQCENDIIPNVLEAMISGELDILKDWCYEATYSQLAHPIQQAKALGLQFHSRILDIDNVDLAMGKMVEQGPVLIITFQAQLVMVVRNPKGEVVEGDPDKVLRMLYVWALCRDQDELNPYAAWRLLDISASSTEQIL
MSKKLLIKTWGCQMNEYDSSKMADLLNAANGYELTEEPEEADVLLLNTCSIREKAQEKVFHQLGRWKTLKDKKPGVVIGVGGCVATQEGDHIRERAPYVDVIFGPQTLHRLPEMIKQSQTDDAPVMDISFPEIEKFDRLPEPRAEGATAFVSIMEGCSKYCTYCVVPYTRGEEVSRPMDDVLFEIAQLAEQGVREVNLLGQNVNAYRGPMHDGEICSFAELLRLVASIDGIDRIRFTTSHPLEFTDDIIAVYEDTPELVSFLHLPVQSGSDRILTMMKRPHTAIEYKSIIRKLRKARPDIQISSDFIVGFPGETDKDFQDTMKLIKDVDFDMSFSFIFSPRPGTPAADYPCDIPEQVKKERLYELQQTINAQAMRYSRLMLATEQRVLVEGPSKKNLMELRARTENNRVVNFEGSADLIGQFVDVKITDVFANSLRGELVRTEKDMDLRSVISPTQMMAKTRREDELGVATFTPLEHHHHHH
AIASRAASLRAELTSLANAFEEERISSAERLDADLVRQAVEQAKPENLEQWKQVVHDATAKLQQFWEDSEQALIRETYALATSYLRESDDEVHRLQMTKKALEEQLETERRRSTRIEEQLAALQSRLLDSAAPAATTPADDARTQQEVLRSELQGFMQELVRNQRESLRVLQEELQRVREEASVREENLLRQIAHLKTELAVARTDNEVSSRQLRQLETSAGREEVQDELGPGTIWPPHLTPRRGHRRFQRHNRLEDAPAPPEF

Soluble on expression in E. coli, not soluble:
MGTHSGHERNGESARGGALQRLERRLAAAWAEQDAYQIEQLAGMIYDRLVRSDPSAAATVLEQNAHRLAVAGKPAEAAELATRLIRHWRELEQRPFYLARLQQMVLEPLQALSGVEAARARTMVLEAVLAWKRASATVDTEEAAPAELAPVQDALVDAYVLCGEWARAQYQVVCRGGPAERDLAFIDEQLGPHLANDVERMLARTRLVLFYVLAGNLKAGRALVEEIQRKHPTAPMTNFVVILMQVLERARNVDSSKRRLLRNFCDDLKRVYHWAFSLDPELDAMLDDVLKAQGL
MARTIPVLEIFGPTIQGEGMVIGQKTMFVRTAGCDYRCRWCDSAFTWDGSAKDEIEQLTADEIWRRLEAIGGRRFRHVTISGGNPLLIAALGELIALLHEKGMRVAVETQGSRWQDWLLDIDDVTLSPKPPSSGMDTDWSALDQIIERLQADQSRVRRISLKVVVFDDADLAYAKEVHCRYPGVPFYLQTGNADVADSDVDALRAKLLSRLEWLVEQAADSEELADVHILPQLHTLLWGNKRGV
CIIDKVTAVRRLNVLTLNVHKGFTFFNRRFILPELREAVRATGADLVFLQEVHGSHQQHALRHPAWPETPQYEFLADSMWPQFAYGRNAVYPHGDHGNALLSKFPIRRFNNLDVSVQGNEQRGLLHCQLEVPGHDEVHAVCVHLGLREAHRQRQVKLMLDLLASLPPNAPVIIAGDFNDWRLKADAVLSEHLTEAFGTPARSFPARLPLLRLDRIYLRNAVPGAAQVLSKYPWSHLSDHVPLAAEINL
MGSDKIHHHHHHACSGQLDTIQEYLDAGETIYAAKMDSVDIRPGYNRVEVTGLLKYGMDTERCVIHWTPDNDSLVVPVKRIDPVDTFRVFIENLPEGTYQFEIVTYNKSGYRSISTSKGSKTYGDRYISSLRVRSLLSTEVEGENLLLNFSSEMAEALATKVFYLNSAGEKQEQEVARGDNQIKITDWKPRGAYEVKTYYIPEVNAVDTFSVSSTGVFPEKIVEMDKSTFREIILDNDIRLNAWGGALWKAWDNAYENTNYAHSDNTNPIVFPAWFTFDLGEKALLKRFDLFSVVRDDLNYNGGNMKSWEIWGREDEPANSSWDGWTKLITCNSFKPSGKPVGENTDEDNSYIAKGEKFDFPSGIPEVRYIRIKVLDSWSGQGYVQFSEFTFYKSE
PARLSTADKYTENPVSGVMAQLYSARSKNSWGMGDFNDLGLLAETLAPQADYLLINPLHAAEPMPPVEDSPYLPTTRRFINPIYIRIEDIPEHLLLDDDLQNDIAELAEKFTALNLTPEKIERNPIFDAKLQVLHAVFNVEREPAREQDFQDFIATEGQGLRDFASWCADQELAVLESSAAHAALPEKESLIQFYMWQQWICDQQLGAAQTRATD
MGSDKIHHHHHHMFQSDLKLIVFQHGFFGERFVANLMNYPNSCPSYGACGIDGCTQCKEGLYNFSKNIIAVFSMPDPTTMPDFIENAEDFLPKVIPEADIAVAINLHPDVLAVMPEKLKGKVKALIVPVEEPRWCSPGLAKQIREKCDELGLEFAAPKPFCNLRPSEEHPTINRMIEEMRIGYPEFEIELLEDGKAYVRISRSQPCGCAYYIGVKLRGFDFSEVKEGKMRELWNVVAEAHHSYPCTASMERDNEYNETLLHVGGYIARHAVNRALGYEGDEDIPEHIKHIVL
MGSDKIHHHHHHMIYIGLPQWSHPKWVRLGITSLEEYARHFNCVEGNTTLYALPKPEVVLRWREQTTDDFRFCFKFPATISHQAALRHCDDLVTEFLTRMSPLAPRIGQYWLQLPATFGPRELPALWHFLDSLPGEFNYGVEVRHPQFFAKGEEEQTLNRGLHQRGVNRVILDSRPVHAARPHSEAIRDAQRKKPKVPVHAVLTATNPLIRFIGSDDMTQNRELFQVWLQKLAQWHQTTTPYLFLHTPDIAQAPELVHTLWEDLRKTLPEIGAVPAIPQQSSLF
MGSDKIHHHHHHMFEIKVSQEIKNACPVFAGAAVYAAVKNTAYCDGLWKEINTFTEDLTTTTQMADIKLQPVIAATREAYKRCGKDPGRYRPSAEALRRRLMRGIPLYQIDTLVDLINLVSLRTGHSIGGFDADKIQGNHLELGIGKAEEPFEGIGRGILNIEGLPVYRDSFGGIGTPTSDHERTKMDIGTTHILAIVNGYNGKEGLKEAAEMIQSLLKDYAGSDGGELIYFE
MSTGATIVIDLGKTLSKVSLWDLDGRMLDRQVRPSIPLEIDGIRRLDAPDTGRWLLDVLSRYADHPVTTIVPVGHGAGIAALTDGRLAFPPLDYEQSIPEAVMADYRSQRDPFARTGSPALPDGLNIGSQLWWLDQLHPDVMANATLLPWAQYWAWFLTGRAVSEVTSLGCHSDLWDPQDGDFSPMAKRLGWAARFAPIVRAGDTVGALLPAIAERTGLSPDVQVLAGLHDSNAALLAARLEHHHHHH
TFKHSRDILGRTFDILVIDLSYDYSPNDLGRIIETVRGGGLIFVLTNPFEKWKDMWTGFHKSLVTPPYTIEDVKKRFNRRLIRKFTEHKGIYIVNTDRMSIERKPG
